From article PMC2881335
Values joined by “and” are separate entries in the source; they are usually repeats but may differ in a detail not shown here. Identical values can stand only once.

Experiments:
[1] = target: complement C3b, site-specifically biotinylated at the thioester moiety (UniProt P01024); experiment: SPR
[2] = target: complement C3b, site-specifically biotinylated at the thioester moiety (UniProt P01024); experiment: SPR; remark: listed apart in the source
complement C3b = complement C3b (UniProt P01024); experiment: ITC

Bb fragment of factor B (from UniProt P00751 260-764) (domain or fragment)
decay half-life of the convertase [1]: 5 to 6 min

B1: staphylococcal complement inhibitor SCIN-A (natural protein)
chain: STSLPTSNEYQNEKLANELKSLLDELNVNELATGSLNTYYKRTIKISGQKAMYALKSKDFKKMSEAKYQLQKIYNEIDEALKSKY
Kd [2]: 169 nM and 177 nM
Kd (complement C3b): 264 nM
stoichiometry N (complement C3b): 0.75
